The target in one test is T1, Cyno ASGR-1 (cynomolgus monkey, UniProt P07306 1-291 (human entry)).
T1 construct: Expressed on HEK 293 cells or as membrane prep on beads; cDNA from XP_005582755; also called cynomologus monkey ASGR-1
T1 chain: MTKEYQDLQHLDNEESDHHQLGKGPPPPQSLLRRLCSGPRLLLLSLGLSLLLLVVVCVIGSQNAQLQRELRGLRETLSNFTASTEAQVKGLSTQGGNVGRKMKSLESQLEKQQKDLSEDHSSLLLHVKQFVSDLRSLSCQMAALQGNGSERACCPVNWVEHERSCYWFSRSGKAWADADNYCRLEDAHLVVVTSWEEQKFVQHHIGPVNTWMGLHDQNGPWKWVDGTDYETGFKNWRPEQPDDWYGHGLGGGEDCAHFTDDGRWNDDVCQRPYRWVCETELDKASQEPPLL
Nature of the test: FACS on transfected HEK 293 cells or membrane preps on beads; Y = signal at least 2x irrelevant IgG. The method in brief: (§1)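 Antibodies at normalized concentrations bound 1 h at 4° C to HEK 293 cells expressing each antigen, then Alexa Fluor 647 anti-Fc plus 7-AAD 15 min at 4° C, flow cytometry; empty-vector cells as negative. Alternatively, species ASGR-1 membrane preps on streptavidin beads, antibody 1 h RT, Alexa Fluor 488 anti-Fc; FACS buffer with 1 mM CaCl2 throughout.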

In the next test the target is T2, Pig ASGR-1 (pig).
T2 construct: Expressed on HEK 293 cells or as membrane prep on beads; cDNA GenBank NM_001244458
T2 chain: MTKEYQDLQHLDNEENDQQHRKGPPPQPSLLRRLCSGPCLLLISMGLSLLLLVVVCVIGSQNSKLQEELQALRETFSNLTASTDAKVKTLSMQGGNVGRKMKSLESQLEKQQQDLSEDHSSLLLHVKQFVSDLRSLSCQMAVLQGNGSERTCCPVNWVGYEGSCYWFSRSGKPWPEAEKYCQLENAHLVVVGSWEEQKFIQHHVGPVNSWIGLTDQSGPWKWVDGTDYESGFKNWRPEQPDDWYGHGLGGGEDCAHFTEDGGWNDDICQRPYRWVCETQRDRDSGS
The description is as above. The method in brief:
as §1

The target in the next test is T3, Mouse ASGR-1 (mouse, UniProt P34927 1-284).
T3 construct: Expressed on HEK 293 cells or as membrane prep on beads; cDNA GenBank BC022106.1; also called muASGR-1; mASGR-1
T3 sequence: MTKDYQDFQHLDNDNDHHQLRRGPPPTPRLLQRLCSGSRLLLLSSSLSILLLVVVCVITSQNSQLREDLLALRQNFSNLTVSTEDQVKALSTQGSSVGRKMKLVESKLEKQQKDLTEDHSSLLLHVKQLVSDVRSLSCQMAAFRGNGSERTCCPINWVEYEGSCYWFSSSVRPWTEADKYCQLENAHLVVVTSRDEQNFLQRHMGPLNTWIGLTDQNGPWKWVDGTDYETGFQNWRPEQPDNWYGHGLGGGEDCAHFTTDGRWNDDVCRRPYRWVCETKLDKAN
Kind of test: FACS on transfected HEK 293 cells or membrane preps on beads; binding = signal at least 2x irrelevant IgG. The procedure:
Human ASGR-1-specific, ligand competing antibody samples were tested for binding to ASGR-1 from other species (cynomologus monkey ASGR-1, mouse ASGR-1, rat ASGR-1, dog ASGR-1, and pig ASGR-1) as well as to human ASGR-2 in FACS binding assays at normalized antibody concentrations. For cell-based assays, HEK 293 cells expressing the appropriate antigen of interest were mixed with antibody sample or controls, incubated for 1 hour at 4° C., and then washed twice. Cells with bound antibody were then incubated with Alexa Fluor® 647 IgG Fc fragment-specific detection antibody and 7-AAD viability stain for 15 minutes at 4° C., washed once and resuspended in FACS buffer. Samples were analyzed using a BD Accuri™ Flow Cytometer and an Intellicyt HyperCyt Autosampler. As a negative control, supernatants and controls were also screened against HEK 293 cells transfected with empty parental vector. […] For membrane-prep binding assays, ASGR-1 species specific membrane preps were used to coat LumAvidin® microspheres (beads) and tested for binding to selected hybridoma supernatants or controls. Briefly, ASGR-1 species specific membrane preps were incubated with streptavidin-coated LumAvidin® beads for 45 minutes in the dark at room temperature and washed twice. Beads were resuspeneded in FACS buffer containing Stabilguard®. Antigen-bound beads were then incubated with normalized antibody sample for 1 hour in the dark at room temperature, washed twice, incubated with Alexa Fluor® 488 IgG Fc fragment-specific detection antibody for 15 minutes in the dark at room temperature, washed once and finally resuspended in FACS buffer. Samples were analyzed using an Intellicyt iQue™ Screener Platform. FACS buffer supplemented with 1 mM Calcium Chloride was used in all steps. As a negative control, supernatants and controls were also screened against a non-ASGR-1 antigen membrane prep coated on the LumAvidin® beads.

B1: 7E11 (antibody, V domains shown)
VH: QVQLVESGGGVVQPGRSLRLSCAASGFTFSSFGMHWVRQAPGKGLEWVAIIWHDGSNKYYADSVKGRFTISRDNSNNTLYLQMSSLRAEDTAVYYCARDLSMGGMDVWGQGTTVTVSS
VL: DIQMTQSPSSLSASVGDRVTIACRASQNIISYLNWYQQKPGKAPKFLIYTASSLQSGVPSRFSGSGSGTDFTLTISSLQPEDFAIYYCQQTYSTPLTFGGGTKVEIK
notes: Tested as hybridoma supernatant at normalized concentration
B1: the binding result with Cyno ASGR-1 is given as “binds”; in the test with Pig ASGR-1, “binds”; with Mouse ASGR-1 it was “no binding”.

B2: 194C10 (antibody, V domains shown)
VH: QVQLQQWGAGLLKPSETLSLTCAVSGGSFRYYYWSWIRQPPGKGLEWFGEINHSGSTNYNPSLKSRVTISIDTSKNQFSLKLRSVTAADTAVYYCARDYGAFDIWGQGTMVTVSS
VL: EIVLTQSPGTLSLSPGERATLSCRASPSVNSGYLAWYQQKPGQTPRLLIFGASSRATGIPDRFSASGSGADFTLTISRLEPEDFAVYFCQQYESSPWTFGQGTKVEIK
notes: as for B1
Turning to B2, the results for the binding result with Cyno ASGR-1, in the test with Pig ASGR-1 and in the test with Mouse ASGR-1 were “binds”, “binds” and “no binding”, respectively.

B3: 194A4 (antibody, V domains shown)
VH: QVQLVQSGTEVKKPGASLKVSCKASGYTFTVYYLNWVRQAPGQGLEWMGWINPNSGGTNYAQKFQGRVTMTRDTSISTAYMELSRLRSDDTAVYYCARGYDILTGWGQGTLVTVSS
VL: EIVLTQSPGTLSLSPGERATLSCRASRGVSNIYLAWYQQKPGQAPRLLIYGASNRATGIPDRFSGSGSGTDFTLTISRLEPEDFAVYYCQHNDYSMFTFGPGTKVDIK
notes: as for B1
For B3, the binding result was “binds” with Cyno ASGR-1, “binds” in the test with Pig ASGR-1 and “no binding” in the test with Mouse ASGR-1.

B4: 48B12 (antibody, V domains shown)
VH: EVQLLESGGGLVQPGGSLRLSCAASGFTFSSYAMNWVRQAPGKGLEWVSAISGRGGNTFYADSVKGRFTISRDNSKNTLYLQMNSLRAEDTAVYYCAKRETYNWNYEGFDYWGQGTLVTVSS
VL: SYELTQPPSVSVSPGQTARITCSGDALPKKYAYWYQQKSGQAPVLVIYEDSKRPSGIPERFSGSSSGTMATLTISGAQVEDEADYYCNSTDSSGNHVVFGGGTKLTVL
notes: as for B1
For B4, the binding result with Cyno ASGR-1 is “binds”; with Pig ASGR-1, “binds”; with Mouse ASGR-1, “no binding”.

B5: 176H4 (antibody, V domains shown)
VH: QVQLVESGGGVVQPGRSLRLSCAASGFTFSSYGMHWVRQAPGKGLEWVAIIWYDGSYKYYADSVKGRFTISRDNSKNTLYLQMSSLRAEDTAVYYCARDAHDFWSGYFAYWGQGALVTVSS
VL: DIVMTQTPLSLSVTPGQPASISCKSSQSLLHGDGKTYLYWYLQKPGQPPQLLIYEVSNRFSGVPDRFSGSGSGTDFTLKISRVEAEDVGIYYCMQSIQIPWTFGQGTRVEIK
notes: as for B1
In the case of B5, the results for the binding result in the test with Cyno ASGR-1, with Pig ASGR-1 and with Mouse ASGR-1 were “binds”, “binds” and “no binding”, respectively.

B6: 25A4 (antibody, V domains shown)
VH: QVLLVQSGAEVKRPGASVKVSCKASGYTFTNYDINWVRQATGQGLEWMGWMYPNSGNTGYAQKFQGRVTMTRNTSISTAYMELSSLRSEDTAVYYCASSSGWYYFDYWGQGTLVTVSS
VL: DIVMTQFPDSLAVSLGERATIKCKSSQSVLYSSHNNNYLAWYQQKPGQPPKLLLYWASTRESGVPDRFSGSGSGTEFTLTISSLEAEDVAVYYCQQYYSTPPTFGQGTKVEIK
notes: as for B1
With B6, the binding result in the test with Cyno ASGR-1 is on record as “binds”; with Pig ASGR-1, “binds”; with Mouse ASGR-1, “no binding”.

B7: 4A2 (antibody, V domains shown)
VH: QVQLVQSGTEVKKPGASVKVSCKASGYTFTNYDINWVRQATGQGLEWMGWMHPNSGNTGYAQKFQGRVTLTRNTSISTAYMELSSLRSEDTAVYYCASSSGWYYFDYWGQGTLVTVSS
VL: DIVMTQSPDSLAVSLGERATINCKSSQSILHSSNNNNYLAWFQQKPGQPPKLLLYWASTRESGVPDRFSGSGSGTDFTLTISSLQPEDVAVYYCQQYYNTPVTFGPGTKVGIK
notes: as for B1
Take B7: the values for the binding result in the test with Cyno ASGR-1, with Pig ASGR-1 and in the test with Mouse ASGR-1 were “binds”, “binds” and “no binding”, respectively.

B8: 26C4 (antibody, V domains shown)
VH: QVQLVQSGAEVKKPGASVKVSCKASGYTFTNYDINWVRQASGQGLEWMGWMNPNSGNTGYAQRFQGRVTMTRNTSINTAYMELSSLRSEDTAVYYCASSSGWYYFDYWGQGTLVTVSS
VL: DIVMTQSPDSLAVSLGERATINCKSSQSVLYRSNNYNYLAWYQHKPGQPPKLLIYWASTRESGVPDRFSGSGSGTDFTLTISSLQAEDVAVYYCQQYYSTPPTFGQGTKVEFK
notes: as for B1
Consider B8, for which the binding result with Cyno ASGR-1 was “binds”; in the test with Pig ASGR-1, “binds”; in the test with Mouse ASGR-1, “no binding”.

B9: 29H8 (antibody, V domains shown)
VH: QVQLVQSGAEVQKPGASVKVSCKASGYTFTNYDINWVRQATGQGLEWMGWMNPNSGNTGYAQRFQGRVTMTRNTSISAAYMELSSLRSEDTAVYYCASSSGWYYFDYWGQGTLVTVSS
VL: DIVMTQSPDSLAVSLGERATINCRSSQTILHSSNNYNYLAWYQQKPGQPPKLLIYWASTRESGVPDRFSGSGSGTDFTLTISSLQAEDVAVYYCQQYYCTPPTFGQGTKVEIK
notes: as for B1
Turning to B9, the results for the binding result with Cyno ASGR-1, with Pig ASGR-1 and with Mouse ASGR-1 were “binds”, “binds” and “no binding”, respectively.

B10: 7G4 (antibody, V domains shown)
VH: QVQLVESGGGVVQPGRSLRLSCAASGFTFNNYVMHWVRQAPGKGLEWVAVIWYDGSNKYYADSVKGRFTISRDNSKNTLYLQMTSLRAEDTAVYYCAREKYSSNWYDYGMDVWGQGTTVTVSS
VL: DIQMTQSPSSLSASVGDRVTITCRASQGIRNDLGWYQQRPGKAPKRLIYAASSLQSGVPSRFSGSGSGTEFTLTISSLQPEDSATYYCLHQYSYPRTFGQGTKVEIK
notes: as for B1
For B10, the binding result in the test with Cyno ASGR-1 is “binds”; in the test with Pig ASGR-1, “binds”; in the test with Mouse ASGR-1, “no binding”.

B11: 202A3 (antibody, V domains shown)
VH: QVQLEQSGAEVKKPGASVKVSCKASGYTFTSYDINWVRQATGQGLEWLGWMNPKRGNTGYAQKFQGRVTMTRNTSISTAHMELSSLRSEDTAVYYCARGRYSREDYYYYYDMDVWGQGTTVTVSS
VL: DIQMSQSPSSLSASVGDRVTITCRASQGIRNDLGWYQQKPGKAPKRLICAASRLQSGVPSRFSGSGSGTEFTLTISSLQPEDFAIYYCLQHHDYPFTFGPGTKVDIK
notes: as for B1
Consider B11, for which the binding result is “binds” with Cyno ASGR-1, “binds” in the test with Pig ASGR-1 and “no binding” in the test with Mouse ASGR-1.

B12: 198D2 (antibody, V domains shown)
VH: QVQLVESGGGVVQPGRSLRLSCAASGFTFRSYGMHWVRQAPGKGLEWVAVIIYDGSYKYYADSVKGRFTISRDNSKNTLYLQMNSLRAEDTAVYYCARTYSGGMDVWGQGTTVTVSS
VL: QSVLTQPPSVSAAPGQKVTISCSGSSSNIGSNYVSWYQQLPGTAPKVLIYDNNKRPSGIPDRFSGSKSGTSATLGITGLQTGDEADYYCGTWDSRLNVGVFGGGTKLTVL
notes: as for B1
With B12, the binding result with Cyno ASGR-1 is given as “binds”; with Pig ASGR-1, “binds”; with Mouse ASGR-1, “no binding”.

These data come from patent US20190248902A1 (published 2019).
